Assay results reported in PMC3608554.

Molecular target: PLCg2 (UniProt P16885)
Assay: anti-PLCg2 IP, anti-BANK1 blot
Details: reference: wild type; sites Y484,Y488

binding against the reference: weaker
Substance: BANK1 (from UniProt Q8NDB2) Y484F/Y488F
